# Patent publication US20250122306A1 (SUTRO BIOPHARMA, published 2025)
# Numbering of substitutions follows the chain as printed. Read-outs that look alike come from different tables or passages of the source.
# B1: 2842-B01 HC1/LC1 (antibody, V domains shown)
# VH: QVQVVESGGGLVKPGGSLRLSCAASGFSISSYDMSWIRQAPGKGLEWIGIIGSNGRTYYADSVKGRFTISRNTNENTVYLQMNSLRAEDTAVYYCARGLYDGTGNIWGQGTLVTVSS
# VL: DLQMTQSPSSLSASVGDRVTITCRASQSVYGNNWLSWYQQKPGKAPKLLIYGASKLASGVPSRFSGSGSGTQFTLTISSLQPEDFATYYCQGTYYSGDWYFAFGQGTKVEIK
# notes: humanized rabbit antibody, variable regions fused to human IGHG1 and IGKC
# B2: mAb 48: aTF_2842-B01_HC1_Y180/F404TAG; aTF_2842-B01_LC3 (antibody, IgG1, V domains shown)
# VH: B1 VH
# VL: DIQMTQSPSSLSASVGDRVTITCQASQSVYGNNWLSWYQQKPGKAPKLLIYGASKLASGVPSRFSGSGSGTDFTLTISSLQPEDFATYYCQGTYYSGDWYFAFGGGTKVEIKR
# modifications: non-natural amino acid (pAMF) at TAG sites Y180 and F404 (EU), * in the sequence
# notes: unconjugated full-length IgG1/kappa; also called 2842-B01 HC1/LC3
# B3: mAb 47: aTF_2842-B01_HC3_Y180/F404TAG; aTF_2842-B01_LC1 (antibody, IgG1, V domains shown)
# VH: B1 VH with Q1E, V4L, K13Q, I37V, A60P, N72D, T73N, N74S, E75K, Y79T
# VL: B2 VL with I2L, Q24R, D72Q, G105Q
# modifications: non-natural amino acid (pAMF) at TAG sites Y180 and F404 (EU), * in the sequence
# notes: unconjugated full-length IgG1/kappa; also called 2842-B01 HC3/LC1
# B4: SRP2799-B03 (antibody, IgG1, V domains shown)
# VH: EVQLVESGGGLVQPGGSLRLSCAASGFNISDYWIHWVRQAPGKGLEWVGFIDPYNGYTNYADSVKGRFTISADTSKNTAYLQMNSLRAEDTAVYYCARGYGSWPDYLDYWGQGTLVTVSS
# VL: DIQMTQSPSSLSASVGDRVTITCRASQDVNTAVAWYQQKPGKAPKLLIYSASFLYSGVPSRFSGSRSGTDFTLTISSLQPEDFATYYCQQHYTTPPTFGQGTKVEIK
# notes: also called SRP2799-B03 (parent)
# B5: SRP2799-B06 (antibody, IgG1, V domains shown)
# VH: EVQLVESGGGLVQPGGSLRLSCAASGFNISDYNIHWVRQAPGKGLEWVGYIDPSNGYTYYADSVKGRFTISADTSKNTAYLQMNSLRAEDTAVYYCARDDQSVSSPFDYWGQGTLVTVSS
# VL: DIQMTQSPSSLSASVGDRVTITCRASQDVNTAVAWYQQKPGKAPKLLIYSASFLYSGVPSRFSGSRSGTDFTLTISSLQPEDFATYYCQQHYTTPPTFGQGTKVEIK
# notes: also called SRP2799-B06 (parent)
# B6: mAb 49: aTF_2842-G04_HC2_Y180/F404TAG; aTF_2842-G04_LC2 (antibody, IgG1, V domains shown)
# VH: QVQVQESGPGLVKPPGTLSLTCAVSGFSLSYYGVSWVRQPPGKGLEWIGTIDSSGRTYYNPSLKSRVTISNDNAPNTVSLKLSSVTAADTAVYYCARDFYGWNSGALDIWGQGTLVTVSS
# VL: DLQLTQSPSTLSASVGDRVTITCRASQSVYSNKYLSWYQQKPGKAPKLLIYKASTLASGVPSRFSGSGSGTEFTLTISSLQPDDFATYYCAAAYSDDSDTAFGQGTKVEIKR
# modifications: non-natural amino acid (pAMF) at TAG sites Y180 and F404 (EU), * in the sequence
# notes: unconjugated full-length IgG1/kappa; also called 2842-G04 HC2/LC2
# Tests used:
# [1] = molecular target: T1, tissue factor reagent of the Tissue Factor Activity Assay Kit (Abcam #ab108906) (UniProt P13726 33-295, limits assumed); test: cell-based or functional assay
# [2] = molecular target: T2, human tissue factor (human TF, Lake Pharma) (human, UniProt P13726 33-251, limits assumed); test: Biacore SPR, single-point off-rate (100 nM antigen), antibody captured on anti-Fc
# T2 construct: bought recombinant antigen; also called CD142
# Experimental: (§1) Anti-Fc polyclonal antibodies were immobilized onto a CM4 chip (Cytiva #BR100534) using amine coupling chemistry (Human Antibody Capture Kit, Cytiva #BR100839). The immobilization steps were carried out at a flow rate of 25 μL/min in 1×HBS-EP+buffer (Cytiva #BR100669). The sensor surfaces were activated for 7 min with a mixture of N-hydroxysuccinimide (NHS, 0.05 M) and 1-ethyl-3-(3-dimethylaminopropyl)-carbodiimide (EDC, 0.2 M). The anti-Fc polyclonal antibodies were injected over all 4 flow cells at a concentration of 25 μg/mL in 10 mM sodium acetate, pH 4.5, for 7 min. Ethanolamine (1 M, pH 8.5) was injected for 7 min to block any remaining activated groups.
# (§2) Off-rate and kinetic binding experiments were performed at 25° C. using 1×HBS-EP+buffer. Antibodies were injected over the anti-Fc surface at a concentration of 3 μg/mL for 12 seconds at a flow rate of 10 μL/min on flow cells 2, 3 and 4, followed by a buffer wash for 30 seconds at the same flow rate. Single point off-rate analysis was carried out using an antigen concentration of 100 nM. […] After capturing ligand (antibody) on the anti-Fc surface, the analyte (human TF, Lake Pharma; cynomolgus TF, Sino Bio #90885-C08H; mouse TF, R&D Systems #3178-PA) was bound for 180 seconds, followed by a 420 second dissociation phase at a flow rate of […]. Between each ligand capture and analyte binding cycle, regeneration was carried out using 2 injections of 10 mM glycine pH 2.0 for 30 seconds at 30 μL/min, followed by a 30 second buffer wash step.
# [3] = molecular target: T3, cynomolgus tissue factor (cynomolgus TF, Sino Bio #90885-C08H) (cynomolgus monkey, UniProt P13726 33-251 (human entry)); test: as above
# T3 construct: bought recombinant antigen; also called cyno TF
# T3 chain: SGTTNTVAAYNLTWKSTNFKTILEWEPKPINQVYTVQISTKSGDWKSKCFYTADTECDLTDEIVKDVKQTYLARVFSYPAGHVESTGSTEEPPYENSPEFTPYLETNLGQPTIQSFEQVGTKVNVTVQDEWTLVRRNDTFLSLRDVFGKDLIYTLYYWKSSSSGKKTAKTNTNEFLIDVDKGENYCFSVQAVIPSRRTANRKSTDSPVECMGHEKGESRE
# Experimental: as §1, §2
# [4] = molecular target: T4, cynomolgus tissue factor on HEK293T-cynoTF cells (cynomolgus monkey, UniProt P13726 33-294 (human entry)); test: flow cytometry on HEK293T-cynoTF cells, one-site fit of MFI
# T4 construct: stably transfected HEK293T cells
# T4 chain: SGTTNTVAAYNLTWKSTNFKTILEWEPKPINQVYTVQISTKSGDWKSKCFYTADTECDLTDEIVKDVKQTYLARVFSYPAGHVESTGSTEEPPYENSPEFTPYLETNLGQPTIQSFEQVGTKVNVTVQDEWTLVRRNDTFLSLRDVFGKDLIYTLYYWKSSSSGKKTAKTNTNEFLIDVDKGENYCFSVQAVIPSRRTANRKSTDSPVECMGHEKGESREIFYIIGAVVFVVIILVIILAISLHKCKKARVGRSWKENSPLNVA
# Excerpt: (§3) HEK293T, BxPC3 cells (TF positive) and NCI-H1703 (TF negative) cells were obtained from ATCC (American Type Culture Collection) and maintained in DMEM: F12 (1:1), high glucose (Corning) supplemented with 10% heat-inactivated fetal bovine serum (ThermoScientific), 1× Penicillin/Streptomycin (Corning) and 2 mmol glutamax (Thermo Fisher Scientific). To generate cells that stably expressing human tissue factor (HEK293T-humanTF) or cynomolgus tissue factor (HEK293T-cynoTF), HEK293T cells were transfected with plasmid vectors that contain the corresponding protein sequence and stable clones were selected with puromycin.
# (§4) For a fluorescence-activated cell sorting (FACS) cell-binding assay, cells were collected by Accutase and counted by the Vi-CELL Cell Viability Analyzersharvested and, then re-suspended in FACS buffer (DPBS buffer supplemented with 1% bovine serum albumin). A total of 200,000 cells in 100 μL were incubated on ice with 100 μL of anti-TF antibodies in each well of a 96-well plate. Cells were washed twice with ice-cold FACS buffer and then incubated on ice for 60 mins with 5 μg/mL Alexa 647-labeled donkey anti-human Fc antibody (Jackson ImmunoResearch). Unstained cells and cells stained with secondary antibody alone were used as controls. Cells were washed twice with FACS buffer and analyzed using a BD FACS Canto system. Geometric mean fluorescence intensities (MFI) were fitted using non-linear regression analysis with one site specific binding equation on GraphPad Prism (GraphPad Software; La Jolla, CA).
# [5] = molecular target: T5, human tissue factor on cells (human, UniProt P13726 33-295); test: flow cytometry on HEK293T-humanTF cells, one-site fit of MFI
# T5 construct: cell-surface TF, transfected (HEK293T-humanTF) or endogenous (tumour lines, keratinocytes); the cell line is named under assay; also called HEK293T-humanTF; TF on BxPC3, primary human keratinocytes, NCI-H292, HCC1954, NCI-H1975
# Excerpt: as §3, §4
# [6] = molecular target: T2, human tissue factor (human TF, Lake …); test: Biacore SPR kinetics, antibody captured on anti-Fc, 1:1 Langmuir fit
# Experimental: as §1, §2
# (§5) The data were fit with the Biacore T200 Evaluation software, using a 1:1 Langmuir binding model. KD (affinity, nM) was determined as a ratio of the kinetic rate constants calculated from the fits of the association and dissociation phases.
# [7] = molecular target: T3, cynomolgus tissue factor (cynomolgus …); test: as above
# Experimental: as §1, §2, §5
# [8] = molecular target: T5, human tissue factor on cells; test: flow cytometry on BxPC3 cells (TF positive), one-site fit of MFI
# Excerpt: as §3, §4
# [9] = molecular target: T1, tissue factor reagent of the Tissue …; test: cell-based or functional assay; remark: listed apart in the source
Binder,"FX conversion (% inhibition), 1000 nM antibody [1]",koff [2],koff [3],Bmax (MFI) [4],Kd [4],Bmax (MFI) [5],Kd [5],Kd [6],koff [6],kon [6],Kd [7],koff [7],kon [7],Bmax (MFI) [8],Kd [8],"FX conversion (% inhibition), 1000 nM antibody [9]"
B1,-0.45%,0.000727 s⁻¹,0.00352 s⁻¹,–,–,–,–,–,–,–,–,–,–,–,–,–
B2,–,–,–,486000 MFI,3.4 nM,318000 MFI,2.3 nM,17.4 nM,0.00124 s⁻¹,71200 M⁻¹ s⁻¹,60.7 nM,0.00735 s⁻¹,121000 M⁻¹ s⁻¹,–,–,–
B3,–,–,–,501000 MFI,3.2 nM,351000 MFI,3.3 nM,7.81 nM,0.000422 s⁻¹,54000 M⁻¹ s⁻¹,20.1 nM,0.00166 s⁻¹,82700 M⁻¹ s⁻¹,–,–,–
B4,–,0.00415 s⁻¹,0.00169 s⁻¹,–,–,–,–,–,–,–,–,–,–,45400 MFI,4.7 nM,2.41%
B5,–,0.00827 s⁻¹,0.00166 s⁻¹,–,–,–,–,–,–,–,–,–,–,46300 MFI,4.1 nM,-1.01%
B6,–,–,–,465000 MFI,5.1 nM,244000 MFI,1.4 nM,13.8 nM,0.000865 s⁻¹,62500 M⁻¹ s⁻¹,29.9 nM,0.00241 s⁻¹,80800 M⁻¹ s⁻¹,–,–,–
